For one series, the target named is T1, POPDC2-VN155 (human, UniProt Q9HBU9 1-364).
T1 sequence (looked up): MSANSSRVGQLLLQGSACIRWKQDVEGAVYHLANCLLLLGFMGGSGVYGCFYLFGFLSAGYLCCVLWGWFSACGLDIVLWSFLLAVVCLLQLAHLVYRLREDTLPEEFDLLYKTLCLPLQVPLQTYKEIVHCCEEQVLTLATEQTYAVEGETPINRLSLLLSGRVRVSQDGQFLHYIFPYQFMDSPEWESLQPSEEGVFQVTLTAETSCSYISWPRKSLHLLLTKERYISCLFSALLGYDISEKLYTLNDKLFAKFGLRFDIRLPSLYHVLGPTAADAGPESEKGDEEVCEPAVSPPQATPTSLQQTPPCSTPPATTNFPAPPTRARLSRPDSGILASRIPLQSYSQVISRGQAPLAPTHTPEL
The experiment in a line: split reporter.

Another series addresses T2, POPDC2 p.W188X-VN155 (human, UniProt Q9HBU9 1-187).
T2 sequence (looked up): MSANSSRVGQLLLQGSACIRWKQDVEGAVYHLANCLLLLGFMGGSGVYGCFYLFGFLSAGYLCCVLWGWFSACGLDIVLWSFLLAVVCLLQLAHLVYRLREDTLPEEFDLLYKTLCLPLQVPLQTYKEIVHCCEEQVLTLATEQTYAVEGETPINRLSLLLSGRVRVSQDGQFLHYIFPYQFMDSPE
The experiment in a line: split reporter.

The series “FRET or BRET” deals with the molecule itself. The experiment in a line: FRET or BRET. On the technique in general: BRET reads energy transfer from a luciferase to a nearby fluorophore.
Series [1] deals with the molecule itself. In words: SDS-PAGE and Western blot of oligomer bands that withstand SDS.

Residue numbers refer to the chain shown, from its start. Names may count otherwise.

B1: POPDC1 p.Q153X-VC155 (domain or fragment, human, UniProt Q8NE79 1-152, looked up)
chain: MNYTESSPLRESTAIGFTPELESIIPVPSNKTTCENWREIHHLVFHVANICFAVGLVIPTTLHLHMIFLRGMLTLGCTLYIVWATLYRCALDIMIWNSVFLGVNILHLSYLLYKKRPVKIEKELSGMYRRLFEPLRVPPDLFRRLTGQFCMI
With B1, the “BiFC signal relative to the wild-type pair” value with POPDC2-VN155 was 0.248.

B2: POPDC1-VC155 (natural protein, human, UniProt Q8NE79 1-360, looked up)
chain: MNYTESSPLRESTAIGFTPELESIIPVPSNKTTCENWREIHHLVFHVANICFAVGLVIPTTLHLHMIFLRGMLTLGCTLYIVWATLYRCALDIMIWNSVFLGVNILHLSYLLYKKRPVKIEKELSGMYRRLFEPLRVPPDLFRRLTGQFCMIQTLKKGQTYAAEDKTSVDDRLSILLKGKMKVSYRGHFLHNIYPCAFIDSPEFRSTQMHKGEKFQVTIIADDNCRFLCWSRERLTYFLESEPFLYEIFRYLIGKDITNKLYSLNDPTLNDKKAKKLEHQLSLCTQISMLEMRNSIASSSDSDDGLHQFLRGTSSMSSLHVSSPHQRASAKMKPIEEGAEDDDDVFEPASPNTLKVHQLP
For the molecule B2, the “BiFC signal relative to the wild-type pair” value with POPDC2 p.W188X-VN155 amounted to 0.59.

B3: POPDC1 with C-terminal NanoLuc or HaloTag (NanoBRET constructs) (natural protein, human, UniProt Q8NE79 1-360, looked up)
chain: B2 chain
Regarding B3, the “stoichiometry N” value in the series “FRET or BRET” stood at 2.

B4: POPDC1-CFP (natural protein, human, UniProt Q8NE79 1-360, looked up)
chain: B2 chain
In the case of B4, the “stoichiometry N” value in series [1] is 2.

B5: POPDC1 p.S201F-VC155 (natural protein, human, UniProt Q8NE79 1-360, looked up)
chain: B2 chain with S201F
With B5, the “BiFC signal relative to the wild-type pair” value in the series with POPDC2-VN155 is 0.43.

In general, stoichiometry N refers to the number of molecules, sites or subunits per partner or assembly.

The values are drawn from publication doi:10.1101/2022.10.13.511879 (bioRxiv, 2022).
